Data from article PMC9489475 (Nature structural & molecular biology, 2022).

Target: the molecule itself
Test: cryo-EM structure

B1: band 3 (native, full-length, from human erythrocyte membrane) (natural protein, human (endogenous in red blood cells), UniProt P02730 1-911, looked up)
chain: MEELQDDYEDMMEENLEQEEYEDPDIPESQMEEPAAHDTEATATDYHTTSHPGTHKVYVELQELVMDEKNQELRWMEAARWVQLEENLGENGAWGRPHLSHLTFWSLLELRRVFTKGTVLLDLQETSLAGVANQLLDRFIFEDQIRPQDREELLRALLLKHSHAGELEALGGVKPAVLTRSGDPSQPLLPQHSSLETQLFCEQGDGGTEGHSPSGILEKIPPDSEATLVLVGRADFLEQPVLGFVRLQEAAELEAVELPVPIRFLFVLLGPEAPHIDYTQLGRAAATLMSERVFRIDAYMAQSRGELLHSLEGFLDCSLVLPPTDAPSEQALLSLVPVQRELLRRRYQSSPAKPDSSFYKGLDLNGGPDDPLQQTGQLFGGLVRDIRRRYPYYLSDITDAFSPQVLAAVIFIYFAALSPAITFGGLLGEKTRNQMGVSELLISTAVQGILFALLGAQPLLVVGFSGPLLVFEEAFFSFCETNGLEYIVGRVWIGFWLILLVVLVVAFEGSFLVRFISRYTQEIFSFLISLIFIYETFSKLIKIFQDHPLQKTYNYNVLMVPKPQGPLPNTALLSLVLMAGTFFFAMMLRKFKNSSYFPGKLRRVIGDFGVPISILIMVLVDFFIQDTYTQKLSVPDGFKVSNSSARGWVIHPLGLRSEFPIWMMFASALPALLVFILIFLESQITTLIVSKPERKMVKGSGFHLDLLLVVGMGGVAALFGMPWLSATTVRSVTHANALTVMGKASTPGAAAQIQEVKEQRISGLLVAVLVGLSILMEPILSRIPLAVLFGIFLYMGVTSLSGIQLFDRILLLFKPPKYHPDVPYVKRVKTWRMHLFTGIQIICLAVLWVVKSTPASLALPFVLILTVPLRRVLLPLIFRNVELQCLDADDAKATFDEEEGRDEYDEVAMPV
modifications: N-glycan site N642 (N-acetylglucosamine modelled close to N642)
stoichiometry N: 2
